Experimental findings from paper PMC8639217, “Structure of New Binary and Ternary DNA Polymerase Complexes From Bacteriophage RB69” are described below.

The data set concerns the target T1, RB69 DNA polymerase exo- (RB69pol) (Enterobacteria phage RB69, UniProt Q38087 1-903, D222A;D327A).
T1 sequence: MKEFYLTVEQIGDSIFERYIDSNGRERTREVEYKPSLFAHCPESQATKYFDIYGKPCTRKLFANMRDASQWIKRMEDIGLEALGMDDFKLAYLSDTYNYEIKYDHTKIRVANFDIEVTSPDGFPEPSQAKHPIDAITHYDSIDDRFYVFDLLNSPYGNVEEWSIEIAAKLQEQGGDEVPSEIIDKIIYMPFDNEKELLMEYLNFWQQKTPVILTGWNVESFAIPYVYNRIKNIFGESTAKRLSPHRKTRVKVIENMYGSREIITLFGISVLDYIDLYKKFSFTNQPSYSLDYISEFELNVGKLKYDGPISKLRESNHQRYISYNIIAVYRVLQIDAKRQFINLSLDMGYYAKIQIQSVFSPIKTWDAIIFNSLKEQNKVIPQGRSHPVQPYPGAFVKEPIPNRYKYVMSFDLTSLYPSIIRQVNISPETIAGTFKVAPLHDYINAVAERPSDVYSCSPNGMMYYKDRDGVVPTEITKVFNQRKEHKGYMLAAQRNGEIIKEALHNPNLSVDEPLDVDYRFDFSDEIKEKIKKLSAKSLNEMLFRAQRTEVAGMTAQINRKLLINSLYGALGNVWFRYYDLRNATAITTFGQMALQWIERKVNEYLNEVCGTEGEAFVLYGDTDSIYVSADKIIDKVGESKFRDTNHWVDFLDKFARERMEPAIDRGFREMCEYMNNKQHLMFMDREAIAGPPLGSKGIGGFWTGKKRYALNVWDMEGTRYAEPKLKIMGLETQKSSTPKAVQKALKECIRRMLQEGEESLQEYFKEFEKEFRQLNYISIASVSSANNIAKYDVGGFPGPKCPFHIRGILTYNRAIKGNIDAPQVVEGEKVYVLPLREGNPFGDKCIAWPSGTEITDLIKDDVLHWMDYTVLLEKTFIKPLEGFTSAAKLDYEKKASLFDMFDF
The data set is described as follows: X-ray crystallography (2.2 A); MolA: closed ternary complex with dUpNpp, single Ca2+ at B site; rGMP in NTD; Complex (1:1.2 protein:DNA) in 10 mM Tris-HCl pH 8.0, 50 mM NaCl, 10 mM CaCl2, 5 mM DTT, 5% glycerol, 1 mM dUpNpp, 12 h 4 C; crystals at 21 C in 50 mM Na cacodylate pH 5.0, 2-7% isopropanol, 5 mM MgCl2, 2 mM NaCl, 12 mM spermine. The note with it: protein: recombinant; tags: N-terminal His6 removed with TEV protease; 15 bp; 5' overhang 1 nt on primer, 5' overhang 4 nt on template; 1:1.

B1: primer/template (P/T) duplex (dsDNA)
DNA 1: GGAGCGGACTGCTTAC
DNA 2: TCAAGTAAGCAGTCCGCTC
For the molecule B1, the binding result is recorded as “binds”.
